Target: T1, B7H6 (wild type) (human, UniProt Q68D85)
T1 construct: B7H6, human tumor antigen; complete extracellular and transmembrane domains; The results call it the full-length transmembrane protein, the methods complete extracellular and transmembrane domains; also called WT B7H6; WT Ag; source: HEK-293F, transfected (pPPI4 surface expression vector, polyethyleneimine), on the cell surface
Test: flow cytometry on cells; HEK-293F cells expressing WT B7H6 or designed variants, 2.5x10^5 cells/well; 100 nM TZ47, PB11 scFv-Fc or NKp30-Ig for 1 hr in PBS + 0.1% BSA; Anti-Mouse-AlexaFluor488 or Anti-Hu-AlexaFluor647 secondary Abs; integrated MFI normalised to NKp30-Ig binding and to WT B7H6; triplicate wells
Conditions: one partner purified

T1 sequence (Q68D85 25-262): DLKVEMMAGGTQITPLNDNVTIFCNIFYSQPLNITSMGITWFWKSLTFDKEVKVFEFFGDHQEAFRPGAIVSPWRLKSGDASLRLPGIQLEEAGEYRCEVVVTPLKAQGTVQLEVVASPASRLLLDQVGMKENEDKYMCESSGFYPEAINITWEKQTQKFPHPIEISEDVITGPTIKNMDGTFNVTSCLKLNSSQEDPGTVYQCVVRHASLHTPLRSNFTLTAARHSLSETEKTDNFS

| Binder | binding result |
| --- | --- |
| TZ47 (antibody, V domains shown, Murine antibody; detected with an anti-mouse AlexaFluor488 secondary antibody) VH: QVQLQQSGAELMKPGASVKLSCKATGYTFTGYWIEWIKQRPGHGLEWIGEILPGTGSTNYNEKFKGKATFTADTSSNTAYMQLSSLTTEDSAIYYCAIPGPMDYWGQGTSVTVSS VL: DIKMTQSPSSMYASLGERVTITCKASQDINSYLSWFQQKPGKSPKTLIYRANRLVDGVPSRFSGSGSGQDYSLTISSLEYEDMGIYYCLQYDEFPYTFGGGTKLEIK | binds |
| PB11 scFv-Fc (scFv, V domains shown, Used as scFv-Fc in the staining) VH: QVQLVQSGAEVKKPGASVKISCKASGYTLGTYTLHWMRQAPGQRIEWMGWINPGNGYTKYSQRFQGRVTINRDTSATTTYMELSSLRSEDTAVYFCATDRAPVRRAFDIWGQGTMVTVSS VL: QSVLTQPASVSGSPGQSVTISCTGTSSDIGSYKFVSWYQHHPGKAPKLMIYDVTQRPSGVPYRFSGSKSGNTASLTISGLQAEDEADYYCCSYAGDYTYALFGGGTQLTVL | binds |

From publication PMC5739537, “Computationally-driven identification of antibody epitopes” (eLife, 2017)
